{
  "source": "patent US8822661B2",
  "about": "“Xylose reductase mutants and uses thereof” (The Board of Trustees of the University of Illinois, priority 2007, dated 2014)",
  "molecules": {"B1": {"name": "P. siptitus: xylose reductase (XR) from P. siptitus as printed (protein, UniProt P31867 1-318, looked up)", "NAD(P)H-dependent D-xylose …": "MPSIKLNSGYDMPAVGFGCWKVDVDTCSEQIYRAIKTGYRLFDGAEDYANEKLVGAGVKKAIDEGIVKREDLFLTSKLWNNYHHPDNVEKALNRTLSDLQVDYVDLFLIHFPVTFKFVPLEEKYPPGFYCGKGDNFDYEDVPILETWKALEKLVKAGKIRSIGVSNFPGALLLDLLRGATIKPSVLQVEHHPYLQQPRLIEFAQSRGIAVTAYSSFGPQSFVELNQGRALNTSPLFENETIKAIAAKHGKSPAQVLLRWSSQRGIAIIPKSNTVPRLLENKDVNSFDLDEQDFADIAKLDINLRFNDPWDWDKIPIFV"}, "B2": {"name": "C. tenuis: xylose reductase (XR) from C. tenuis (protein, UniProt O74237 1-322, looked up)", "NAD(P)H-dependent D-xylose …": "MSASIPDIKLSSGHLMPSIGFGCWKLANATAGEQVYQAIKAGYRLFDGAEDYGNEKEVGDGVKRAIDEGLVKREEIFLTSKLWNNYHDPKNVETALNKTLADLKVDYVDLFLIHFPIAFKFVPIEEKYPPGFYCGDGNNFVYEDVPILETWKALEKLVAAGKIKSIGVSNFPGALLLDLLRGATIKPAVLQVEHHPYLQQPKLIEFAQKAGVTITAYSSFGPQSFVEMNQGRALNTPTLFAHDTIKAIAAKYNKTPAEVLLRWAAQRGIAVIPKSNLPERLVQNRSFNTFDLTKEDFEEIAKLDIGLRFNDPWDWDNIPIFV"}, "B3": {"name": "S. cerevisiae: xylose reductase (XR) from S. cerevisiae (protein, UniProt P38715 2-327, looked up)", "NADPH-dependent aldose …": "SSLVTLNNGLKMPLVGLGCWKIDKKVCANQIYEAIKLGYRLFDGACDYGNEKEVGEGIRKAISEGLVSRKDIFVVSKLWNNFHHPDHVKLALKKTLSDMGLDYLDLYYIHFPIAFKYVPFEEKYPPGFYTGADDEKKGHITEAHVPIIDTYRALEECVDEGLIKSIGVSNFQGSLIQDLLRGCRIKPVALQIEHHPYLTQEHLVEFCKLHDIQVVAYSSFGPQSFIEMDLQLAKTTPTLFENDVIKKVSQNHPGSTTSQVLLRWATQRGIAVIPKSSKKERLLGNLEIEKKFTLTEQELKDISALNANIRFNDPWTWLDGKFPTFA"}, "B4": {"name": "wt: wild-type xylose reductase from Neurospora crassa, SEQ ID NO: 1 (NCU 08384.1) (protein, listed as Neurospora crassa)", "chain": "MVPAIKLNSGFDMPQVGFGLWKVDGSIASDVVYNAIKAGYRLFDGACDYGNEVECGQGVARAIKEGIVKREELFIVSKLWNTFHDGDRVEPIVRKQLADWGLEYFDLYLIHFPVALEYVDPSVRYPPGWHFDGKSEIRPSKATIQETWTAMESLVEKGLSKSIGVSNFQAQLLYDLLRYAKVRPATLQIEHHPYLVQQNLLNLAKAEGIAVTAYSSFGPASFREFNMEHAQKLQPLLEDPTIKAIGDKYNKDPAQVLLRWATQRGLAIIPKSSREATMKSNLNSLDFDLSEEDIKTISGFDRGIRFNQPTNYFSAENLWIFG"}},
  "key": {"[1]": {"conditions": "cited from earlier work"}, "[2]": {"test": "Kinetic characterization of purified mutant NcXRs, substrate D-xylose (NADPH oxidation at A340)", "assay_type": "biochemical, Neurospora crassa", "protocol": "(§1) NADPH concentration was kept >100 μM at all times, making it the non-rate-limiting reagent assuming no significant change in KM for mutants from the 1.8 μM for wild-type NcXR toward NADPH. All reactions were performed at pH 6.3 and 25° C., allowing for easy comparison to published data on wild-type NcXR. Initial reaction rate at each substrate concentration was measured by monitoring the rate of change at A340 upon addition of purified enzyme to the substrate mix. All readings were taken in at least two independent two data sets to minimize random error and eliminate experimental artifacts. […] Maximum reaction rates (kcat) were calculated based on molecular weight of dimeric NcXR.\n(§2) Michaelis-Meten kinetic constants (KM, kcat) were determined. All reactions were performed at 25° C. in 50 mM MOPS buffer pH 6.3. NADPH concentration was kept >100 μM, usually between 100-400 μM and substrate concentrations were between 5 and 1500 mM for xylose and between 5 and 2000 mM for arabinose. Purified enzymes were kept on ice at all times to minimize thermal inactivation. Calculations were based on at least two independent datasets of two readings each, and were performed by least-squares fit method in Microcal Origin 5.0 (OriginLab Corporation, Northampton, Mass.). Substrate solutions were maintained at 25° C. in ThermoNESLAB RTE7 refrigerated water bath (Thermo Electron Corporation, Waltham, Mass.). A water-circulating jacketed the cuvette holder in Varian Cary 100 Bio UV-visible spectrophotometer (Varian, Palo Alto, Calif.). 500 μL substrate solution was added to a quartz cuvette with 10 mm path-length and mixed with 0.3-2 μg purified enzyme. Reaction rate was monitored as decrease in absorbance at 340 nm, corresponding to oxidation of NADPH (c=6220 M^−1 cm^−1) to NADP. Initial reaction rate was measured as the slope between 0.05 min and 0.25 min. Specific activity calculated for various substrate concentrations from initial reaction rates was used to calculate Michaelis-Menten constants."}, "[3]": {"test": "Kinetic characterization of purified mutant NcXRs, substrate L-arabinose (NADPH oxidation at A340)", "assay_type": "biochemical, Neurospora crassa", "protocol": "as §1, §2"}, "[4]": {"conditions": "XR of the named organism, cited from earlier work"}, "[5]": {"conditions": "XR of the named organism, read-out: KM, NADPH"}},
  "note": "Where two headings read alike, the source gives them in different places.",
  "data": [
    {"molecule": "B1", "values": [
      {"measurement": "Km", "setting": "[1]; [5]", "result": 9, "unit": "µM"}
    ]},
    {"molecule": "B2", "values": [
      {"measurement": "Km", "setting": "[1]; [5]", "result": 4.8, "unit": "µM"}
    ]},
    {"molecule": "B3", "values": [
      {"measurement": "Km", "setting": "[1]; [5]", "result": 7.6, "unit": "µM"}
    ]},
    {"molecule": "B4", "values": [
      {"measurement": "xylose over arabinose specificity, in words", "setting": "[2]", "result": "higher than twofold"},
      {"measurement": "Selectivity (xylose-to-arabinose)", "setting": "[2]; ratio of catalytic efficiency between xylose and arabinose", "result": 2.4},
      {"measurement": "Catalytic Efficiency (relative)", "setting": "[2]; substrate D-Xylose, relative to wt with D-xylose", "result": 100, "unit": "%"},
      {"measurement": "Km", "setting": "[1]; [5]", "result": 1.8, "unit": "µM"},
      {"measurement": "Km", "setting": "[1]; wild-type NcXR, published value, read-out: KM toward NADPH", "result": 1.8, "unit": "µM"},
      {"measurement": "Km", "setting": "[3]; pH 6.3, 25° C., NADPH >100 μM", "result": 40000, "unit": "µM"},
      {"measurement": "kcat", "setting": "[3]; pH 6.3, 25° C., based on dimeric NcXR", "result": 30, "unit": "s⁻¹"},
      {"measurement": "Catalytic Efficiency (relative)", "setting": "[3]; relative to wt with D-xylose", "result": 41, "unit": "%"},
      {"measurement": "kcat", "setting": "[4]", "result": 60, "unit": "s⁻¹"},
      {"measurement": "Km", "setting": "[4]; read-out: KM, xylose", "result": 34000, "unit": "µM"}
    ]}
  ]
}
